Source: patent US5547935A (Chiron Corporation, priority 1994, dated 1996)

Assays:
[1] = biological target: T1, EGF receptor on fixed A431 cells (Homo sapiens, UniProt P00533); assay: Receptor affinity: binding to fixed A431 cells; settings: 1 nM, 2 hr at 37° C.
T1 construct: Confluent A43 1 cells were fixed in 96-well microtiter plates using 0.05% formaldehyde; endogenous in cells; host or cells: A431 cells, formaldehyde-fixed
Procedure: Confluent A43 1 cells were fixed in 96-well microtiter plates using 0.05% formaldehyde for 10 min at room temperature, then washed 3× with 200 μL PBS with 0.1% bovine serum albumin (BSA).
The wells were then washed 3× with 200 μL of PBS/0.1% BSA, detached, and counted in a gamma counter.

[2] = system: Human foreskin fibroblasts; assay: Mitogenicity: 3H-thymidine incorporation; type: cell-based
Procedure: Mitogenicity was assayed substantially following the method described by D. J. Knauer et al, J Biol Chem (1984) 259:5623-31.
Human foreskin fibroblasts were obtained and frozen at the thirteenth passage. Thawed cells are trypsinized, pelleted, and resuspended in a medium containing DMEM, 5% FBS, 1 mM sodium pyruvate, 300 μg/mL L-glutamine, 100 U/mL penicillin, and 100 μg/mL streptomycin. The cells are counted using a hemocytometer and 0.4% trypan blue. The cell concentration is adjusted to 1×10^-5 cells/mL using the same medium, and dispensed onto microtiter plates (100 μL/well). The plates are incubated for 5 days in a tissue culture incubator.
EGF muteins prepared in Example 1 and native sequence EGF are dissolved to make 100 μg/mL solutions. These solutions are used to make serial dilutions of 20, 10, 5, 2.5, 1.25, 0.625, 0.3125, 0.15625, 0.078125, 0.0390625, 0.0195, and 0.00975 ng/mL. Ten μL of each dilution is added to a microtiter plate well, and the plates returned to the incubator and incubated at 37° C. for 18 hours. […]
The well contents are then solubilized using 0.3 N NaOH (50 μL/well) for 30 minutes, and transferred to scintillation vials. Scintillation fluid (Ready-Solv EP, 4 mL) is then added to each vial, and the vials counted for 1 min with a 0-1,000 (^3 H) window in a Beckman LS3801 counter.

Affinity [1]: 32 percentage of control (EGF)
B1: .phi.EFG: EGF with N-terminal flag extension, additional sequence DWKDDDDK (protein)
chain: DWKDDDDKPQHWSCPEGTLAGNGNSTCVGPAPFLIFSHGNSIFRIDTEGTNYEQLVVDAGVSVIMDFHYNEKRIYWVDLERQLLQRVFLNGSRQERVCNIEKNVSGMAINWINEEVIWSNQQEGIITVTDMKGNNSHILLSALKYPANVAVDPVERFIFWSSEVAGSLYRADLDGVGVKALLETSEKITAVSLDVLDKRLFWIQYNREGSNSLICSCDYDGGSVHISKHPTQHNLFAMSLFGDRIFYSTWKMKTIWIANKHTGKDMVRINLHSSFVPLGELKVVHPLAQPKAEDDTWEPEQKLCKLRKGNCSSTVCGQDLQSHLCMCAEGYALSRDRKYCEDVNECAFWNHGCTLGCKNTPGSYYCTCPVGFVLLPDGKRCHQLVSCPRNVSECSHDCVLTSEGPLCFCPEGSVLERDGKTCSGCSSPDNGGCSQLCVPLSPVSWECDCFPGYDLQLDEKSCAASGPQPFLLFANSQDIRHMHFDGTDYGTLLSQQMGMVYALDHDPVENKIYFAHTALKWIERANMDGSQRERLIEEGVDVPEGLAVDWIGRRFYWTDRGKSLIGRSDLNGKRSKIITKENISQPRGIAVHPMAKRLFWTDTGINPRIESSSLQGLGRLVIASSDLIWPSGITIDFLTDKLYWCDAKQSVIEMANLDGSKRRRLTQNDVGHPFAVAVFEDYVWFSDWAMPSVMRVNKRTGKDRVRLQGSMLKPSSLVVVHPLAKPGADPCLYQNGGCEHICKKRLGTAWCSCREGFMKASDGKTCLALDGHQLLAGGEVDLKNQVTPLDILSKTRVSEDNITESQHMLVAEIMVSDQDDCAPVGCSMYARCISEGEDATCQCLKGFAGDGKLCSDIDECEMGVPVCPPASSKCINTEGGYVCRCSEGYQGDGIHCLDIDECQLGEHSCGENASCTNTEGGYTCMCAGRLSEPGLICPDSTPPPHLREDDHHYSVRNSDSECPLSHDGYCLHDGVCMYIEALDKYACNCVVGYIGERCQYRDLKWWELRHAGHGQQQKVIVVAVCVVVLVMLLLLSLWGAHYYRTQKLLSKNPKNPYEESSRDVRSRRPADTEDGMSSCPQPWFVVIKEHQDLKNGGQPVAGEDGQAADGSMQPTSWRQEPQLCGMGTEQGCWIPVSSDKGSCPQVMERSFHMPSYGTQTLEGGVEKPHSLLSANPLWQQRALDPPHQMELTQ
Mitogenicity [2]: 56 percentage of control (EGF)
